Earlier results, collected in PMC5578174.

How the values were obtained:
[1] = molecular target: Ang-2 (Homo sapiens) (UniProt O15123)
[2] = molecular target: PDGFRα (Homo sapiens) (UniProt P16234)
Sequence of PDGFRα (Homo sapiens) (P16234 24-528): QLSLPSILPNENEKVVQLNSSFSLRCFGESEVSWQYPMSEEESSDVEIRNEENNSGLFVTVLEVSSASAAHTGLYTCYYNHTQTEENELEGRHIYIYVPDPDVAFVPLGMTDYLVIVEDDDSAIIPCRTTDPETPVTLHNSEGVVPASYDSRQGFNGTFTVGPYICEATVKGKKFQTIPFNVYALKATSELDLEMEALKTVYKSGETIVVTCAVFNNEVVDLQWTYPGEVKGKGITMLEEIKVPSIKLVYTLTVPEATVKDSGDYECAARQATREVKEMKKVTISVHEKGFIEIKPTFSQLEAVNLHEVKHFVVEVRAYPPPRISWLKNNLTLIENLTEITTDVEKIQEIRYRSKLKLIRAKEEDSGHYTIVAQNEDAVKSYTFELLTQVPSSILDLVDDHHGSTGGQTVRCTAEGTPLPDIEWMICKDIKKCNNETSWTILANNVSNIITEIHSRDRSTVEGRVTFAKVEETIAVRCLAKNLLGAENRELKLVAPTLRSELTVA

Sequence of Ang-2 (Homo sapiens) (O15123 19-496): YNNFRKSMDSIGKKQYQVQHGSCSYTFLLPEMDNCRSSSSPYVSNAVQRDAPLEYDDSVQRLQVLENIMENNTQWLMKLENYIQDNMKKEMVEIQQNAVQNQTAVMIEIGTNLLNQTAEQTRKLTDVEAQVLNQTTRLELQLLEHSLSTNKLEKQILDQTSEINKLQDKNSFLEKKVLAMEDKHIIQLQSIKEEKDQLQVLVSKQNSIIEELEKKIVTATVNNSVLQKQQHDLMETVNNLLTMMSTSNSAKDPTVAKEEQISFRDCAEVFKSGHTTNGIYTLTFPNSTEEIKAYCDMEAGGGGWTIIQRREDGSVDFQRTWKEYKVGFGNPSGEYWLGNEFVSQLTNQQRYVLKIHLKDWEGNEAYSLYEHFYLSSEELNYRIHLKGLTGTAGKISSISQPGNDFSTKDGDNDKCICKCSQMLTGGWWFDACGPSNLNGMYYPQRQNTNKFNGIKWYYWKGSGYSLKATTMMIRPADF

| Kd [1] | Kd [2] | Substance |
| --- | --- | --- |
| 0.024 nM |  | Nesvacumab |
|  | 0.04 nM | Olaratumab |
